Experimental findings from the DeepSol protein solubility set are described below.

A short description of this series: soluble on expression in E. coli; label from the status in PepcDB or PDB records.
For the sequence “CEGGVDMQQSQVQLQCPLTPPRGLQVSIQGEAVAVRPGEDVLFVVRQEQGDVLTTKYQVDLGDGFKAMYVNLTLTGEPIRHRYESPGIYRVSVRAENTAGHDEAVLFVQV”, the “soluble on expression in E. coli” value is “soluble”.
The value for “MAHHHHHHMLWAIKHTDYPTMSTGLETLDLFLENVSKSEYAEVFFKAYMQRILVDVMVASMDSLHASGFQHHVRILQKLFNVSSMVPPDTPTIGKDVIRAYLLDSLTVIPTLTTTSILSFVDTCYESFTDDERFRTQFADFLIEVKVWGAEQENKMQEEDERRLREETIPGFSNLSMEIRRQTCSPPSDPGRCADGQGRGPASVRRFHCRRHRHPSKYTCTPLSLFPLKNPSADPAVRDVRPSYFVDCVGG” was “not soluble”.
With “CTPKPKSAQPVAEEFFHNVAAQDFDAAAQLTDQDDSARELLSRSWEGLQAEGLDVSLNKVDAKDTVATAKYTLTWKLPKDRTLSYDTSMTLNRINDQWTIRWQPAAVHPKLAANQHLELRAINAERASVVSSDGAEVLVPGVQYRLIADTQHIIDKAATAQTIATHLRAARAADETVPELSASDIQQALETNRGSYSLAVVNERAGDSIKQALAGVSGIRLNKEAAMVNKDPNFAPDVIRRVSSLVNDQLAGANGWSVDAVTQDGVSMQTIERHAPQVAPAIRISLNHNVQVAAERAVNLRKDKQSMLVAIRPSTGEILAIAQSDLADKQGDLALNGQYPPGSTFKIVTASAGIQDQGLNADSIVPCPGTMNIYGRTVTNYNGFSLGNVPLEKAFARSCNTTFANISEQLNKGQLKEIGRDFGIGIDYDIPGLNTLTGSIPQGDTELARTEAGYGQGE”, the “soluble on expression in E. coli” value is listed as “not soluble”.
The value for “MSPSLLGSSFLRSASGNFTKFASIRNAHFLSSVPMKKRGVDGNLPKDYFENKTVVVYFSAGWCGSCKFLTPKIKKFYNAVKESDAGKNLEIVWVSKDKEAAHQEEYYEKNLPDWPYIPFGDENIQKLSEKYKAVVIPVLKLVNSNGDVVHDRVRADVEAGIKADPVKTMEEWKKLLNQ” was “not soluble”.
The value for “MLSEGTHLRPYETLGAHADTMDGVTGTRFSVWAPNARRVSVVGQFNYWDGRRHPMRLRKESGIWELFIPGAHNGQLYKYEMIDANGNLRLKSDPYAFEAQMRPETASLICGLPEKVVQTEERKKANQFDAPISIYEVHLGSWRRHTDNNFWLSYRELADQLVPYAKWMGFTHLELLPINEHPFDGSWGYQPTGLYAPTRRFGTRDDFRYFIDAAHAAGLNVILDWVPGHFPTDDFALAEFDGTNLYEHSDPREGYHQDWNTLIYNYGRREVSNFLVGNALYWIERFGIDALRVDAVASMIYRDYSRKEGEWIPNEFGGRENLEAIEFLRNTNRILGEQVSGAVTMAEESTDFPGVSRPQDMGGLGFWYKWNLGWMHDTLDYMKLDPVYRQYHHDKLTFGILYNYTENFVLPLSHDEVVHGKKSILDRMPGDAWQKFANLRAYYGWMWAFPGKKLLFMGNEFAQGREWNHDASLDWHLLEGGDNWHHGVQRLVRDLNLTYRHHKAMHELDFDPYGFEWLVVDDKERSVLIFVRRDKEGNEIIVASNFTPVPRHDYRFGINQPGKWREILNTDSMHYHGSNAGNGGTVHSDEIASHGRQHSLSLTLPPLATIWLVREAE” was “soluble”; that for “MGSDKIHHHHHHMLSIAIAAEFELSEKIVETLEQTQLEIESLTIIEIKPFKEEQGIRFNNKAVVQIMPEEADWTEFNYVLFAGTIEHVDLLAKIADSGCIVIDVLGICASLANIPVVVPGINDDQLIELRQRNIVSLPNPQVTQCALAISNIVNSIHQLVVTSLLPASYVEAEQVAKLAGQTAQLLNGIPLDTEQQRLAFDVFPVQTQNLVIQLQKIYPQLENIVFHQIQVPVFYGMGQFVTALSDYLVDIESQLHFWQENELIQYHAEKLITPVTHGENENNEEKVKLHISTLSAAENKIEFWSVADEQHFNLALMAVKLLELIG” was “not soluble”; that for “MDFQNFVATLESFKDLKSGISGSRIKKLTTYALDHIDIESKIISLIIDYSRLCPDSHKLGSLYIIDSIGRAYLDETRSNSNSSSNKPGTCAHAINTLGEVIQELLSDAIAKSNQDHKEKIRMLLDIWDRSGLFQKSYLNAIRSKCFAAALEHHHHHH” was “soluble”.
The value for “MVVNYPRAYTAEQSRPINLVGKQGQAVQISIHYPSQYICANRERILPDWQEQALFWVVIVLQQSKYPLVKSTAEIEREKEHLREKFMRFGCDLAFELRDRGYLADLIDPRTGYPMLSRPGVIPHNDTAVVKALLNYPVLKNKCSVIVHPHWGTAVYPSIFLSAALEHHHHHH” was “not soluble”; that for “MLVCDFKTTCLNWVNVDDVVMGGVSNSAMQLTQDGTAVFAGNLSLENSGGFASVRTVLERRNYADFAGFRIRVKGDGKRYSFRARNDERFDGVVYKFDFETVPDEWMEIDLSFAGFIPSFRGRTLVDVPPLDSSNIVQIGLLVSNKQAGAFWLEIAWIEAYRADTVASSFRLEHHHHHH” was “soluble”.
Regarding “MNNDKLQRMVENLSEEKFGRTFRHCAYFNKRLRTTGGRYLLKSHDIEINPKQYEHYGEDAVVKIILHELCHYHLHIAGKGYQHKDQDFKRLSQQVGAPRFCNSIESYQQRANYEYYCTKCHAKYIRIRKVDTNRMRCGHCNGKLRMKRQLK”, the “soluble on expression in E. coli” value was “not soluble”.
The value for “MVPAAENLSPIPASIDTNDIPLIANDLKLLETQAKLINILQGVPFYLPVNLTKIESLLETLTMGVSNTVDLYFHDNEVRKEWKDTLNFINTIVYTNFFLFVQNESSLSMAVQHSSNNNKTSNSERCAKDLMKIISNMHIFYSITFNFIFPIKSIKSFSSGNNRFHSNGKEFLFANHFIEILQNFIAITFAIFQRCEVILYDEFYKNLSNEEINVQLLLIHDKILEILKKIEIIVSFLRDEMNSNGSFKSIKGFNKVLNLIKYMLRFSKKKQNFARNSDNNNVTDYSQSAKNKNVLLKFPVSELNRIYLKFKEISDFLMEREVVQRSIIIDKDLESDNLGITTANFNDFYDAFYN” was “soluble”; that for “MSLKFIVIKIGGSTLSDMHPSIINNIKHLRSNNIYPIIVHGGGPFINEALSNQQIEPHFVNGLRVTDKATMTITKHTLIADVNTALVAQFNQHQCSAIGLCGLDAQLFEITSFDQQYGYVGVPTALNKDALQYLCTKFVPIINSIGFNNHDGEFYNINADTLAYFIASSLKAPIYVLSNIAGVLINDVVIPQLPLVDIHQYIEHGDIYGGMIPKVLDAKNAIENGCPKVIIASGNKPNIIESIYNNDFVGTTILNSEGHHHHHH” was “soluble”.
The value for “MEIAFLLNGETRRVRIEDPTQSLLELLRAEGLTGTKEGCNEGDCGACTVMIRDAAGSRAVNACLMMLPQIAGKALRTIEGIAAPDGRLHPVQQAMIDHHGSQCGFCTPGFIVSMAAAHDRDRKDYDDLLAGNLCRCTGYAPILRAAEAAAGEPPADWLQADAAFTLAQLSSGVRGQTAPAFLPETSDALADWYLAHPEATLIAGGTDVSLWVTKALRDLPEVAFLSHCKDLAQIRETPDGYGIGAGVTIAALRAFAEGPHPALAGLLRRFASEQVRQVATIGGNIANGSPIGDGPPALIAMGASLTLRRGQERRRMPLEDFFLEYRKQDRRPGEFVESVTLPKSAPGLRCYKLSKRFDQDISAVCGCLNLTLKGSKIETARIAFGGMAGVPKRAAAFEAALIGQDFREDTIAAALPLLAQDFTPLSDMRASAAYRMNAAQAMALRYVRELSGEAVAVLEVMP” was “soluble”; that for “MSLKIFPSSSIKKLDAYTIEHEPIASIDLMERAAQALTKAITERWDITTPVTVFAGPGNNGGDALAVARMLAEKEYKVEAYLFNPKGELSADCQTNKELVEMMDNVKFSEVSTQFVPPTLTMDHLVVDGLFGSGLNKPLSGGFAAVVKYINASPATVVAIDIPSGLMGEENTFNVKANIIRAQLTLSLQLPKLAFLFAENSEFVGEWKLLDINLSREAIEETESNYALLEAEEIHALIKPRNTFSHKGNFGHALLIAGSYGMAGASILAARACMRSGVGLLTVHAPIRNNDILQISVPEAIIESDASDTYFACPTDTDDYQAVGIGPGIGRSEETEAALLEQLSGCQTPLVLDADALNILANHRHALTTLPKGSILTPHPKELERMVGKCQNSYERLMKACELARTAKVHIILKGAYSAIITPSGKCYFNSTGNPGMATAGSGDVLTGVVLALLAQGYPAEEAAKIGTYVHGLAGDFARKKQGVISMTAGDIISNLPLAWRLVSEGHHHHHH” was “soluble”; that for “MGSDKIHHHHHHMSTLDIAEDNKIKNEEFKIWKKSIPSLYQHISSLKPIFGSGVDESPSTLRSIVFTNDSSCNKSKGVLSVPLLYSQGSEIFEVDCIVPLGLHYKKPESISEPLVQPDYTMESQKVEQTVLIPKWEFKGETIAKMIYVDNSEINVKVIALSTNGSLAWFREGVKSPVYTMMEPSTSLSSASSGNQNKPCVDFAISNDSKTLTVTKEKHLDNENATIKLIDNSGKIGEVLRTIPVPGIKNIQEIKFLNNQIFATCSDDGIIRFWGNEIGKKPLWILNDSLDGKTTCFAASPFVDTLFMTGTSGGALKVWDIRAVIALGDADAELNINQGHNKVNELFKVHHFYSEQVSKIEFSSISPMEVVTIGGLGNVYHWNFEPVFAIYNEIHEDFQGIISDELEAESMAFYHTEGCRREIGENNKVNTVAYHKYIEDLVATVDSDGLLTVYKPFTGKVLDGSREVGAAKS” was “not soluble”.
The value for “MLAQRGTFAECGAEVLAVAMSPGRRHITKPVCEITFGLRESNVLTSTMVLNAGAGVPHDAPASGGTLFGLTDKEVEQMSNFKLLVIHLGGVKNHLIYKARLILRNVNKPCIIICESPVDCEDFAKIGVKTSKVMPSEEDVKTEGHIVDIVSGVIRGETISQEKLDEIIRKVKLALGDALEHHHHHH” was “soluble”; that for “MTTTTTFKGVDPNSRNSSRVLRPPGGGSNFSLGFDEPTEQPVRKNKMASNIFGTPEENQASWAKSAGAKSSGGREDLESSGLQRRNSSEASSGDFLDLKGEGDIHENVDTDLPGSLGQSEEKPVPAAPVPSPVAPAPVPSRRNPPGGKSSLVLG” was “soluble”; that for “MKKFLALLLSVIIVFSLTACGGKNSGNNSNNSSNNNSSNNTGGKKIKIGMVTDVGGVNDGSFNQSAWEGLQRAQKELGVEVRYAESATDADYAPNIEAFIDEGYDLIICVGYMLADATRKAAEANPNQKFAIIDDASIDLPNVTCLMFEQSQASYLVGLVAGKMTKTNKVGFVVGMVSQTMNEFGYGYLAGVKDANPNATILQFNANSFSSTETGKSAATTMITNGADVIFHAAGGTGLGVIEGCKDAGKWAIGVDSDQSPLAPENILTSAMKRVDNACFDIAKAVKEGNVKPGIITYDLKSAGVDIAPTTTNLPKEVLDYVNQAKQDIINGKITVPKTKAEFEAKYGNIYELDD” was “soluble”.
Take “MIELKEVVKEYRTKNKEVLAVDHVNLSIRAGSIYGVIGFSGAGKSTLIRMFNHLEAPTSGEVIIDGDHIGQLSKNGLRAKRQKVNMIFQHFNLLWSRTVLKNIMFPLEIAGVPRRRAKQKALELVELVGLKGREKAYPSELSGGQKQRVGIARALANDPTVLLCDEATSALDPQTTDEILDLLLKIREQQNLTIVLITHEMHVIRRICDEVAVMESGKVIEHGPVTQVFENPQHTVTKRFVKEDLNDDFETSLTELEPLEKDAYIVRLVFAGSTTTEPIVSSLSTAYDIKINILEANIKNTKNGTVGFLVLHIPYISSVDFGKFEKELIERQVKMEVLRHG”: the “soluble on expression in E. coli” value was “not soluble”.
